From FireProtDB (doi:10.1016/j.bpc.2008.08.008)
Where “and” joins values, the source holds several entries; their conditions need not be identical. Identical values can stand only once.

Details: Capra hircus, pH 6, Cacodylate 0.03 M, Potassium chloride 0.1 M, reversible: Yes; for denaturant midpoint (higher = more stable) / unfolding free energy: 25 °C, GdnHCl

wild type, Q3LUG9, sequence (Q3LUG9 entry or part of it): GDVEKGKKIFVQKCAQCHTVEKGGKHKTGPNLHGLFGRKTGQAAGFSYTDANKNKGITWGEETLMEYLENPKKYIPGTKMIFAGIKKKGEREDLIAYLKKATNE

wild type, Q3LUG9
denaturant midpoint (higher = more stable) (Absorbance): 2.7 M and 2.6 M | unfolding free energy (Absorbance): 9.49 kcal/mol and 9.39 kcal/mol | denaturant midpoint (higher = more stable) (CD): 2.5 M and 2.6 M | unfolding free energy (CD): 9.3 kcal/mol and 9.58 kcal/mol | heat capacity change of unfolding (Thermal, CD): 1.29 kcal/mol/K
